Assay results: patent US20240270846A1 (published 2024)
Where a chain is given by its changes, count along the chain named. In names and notes the source's numbering stands.

B1: GLS3000 H34M one-arm antibody (antibody, human IgG1, kappa, L234A L235A, N297A, name in Kabat numbering)
light: DIVMTQSPLSLPVTPGEPASISCRSSQSLVHSNRNTYLMWYQQKPGQAPRLLIYKVSNRFSGVPDRFSGSGSGTDFTLKISRVEAEDVGVYYCGQGTQVPYTFGQGTKLEIKRTVAAPSVFIFPPSDEQLKSGTASVVCLLNNFYPREAKVQWKVDNALQSGNSQESVTEQDSKDSTYSLSSTLTLSKADYEKHKVYACEVTHQGLSSPVTKSFNRGEC
heavy: QVQLVESGGGVVQPGRSLRLSCAASGFTFSNAWMHWVRQAPGKGLEWVAQIKAKSNNYATYYAESVKGRFTISRDDSKNSLYLQMNSLKTEDTAVYYCRYVHYGAYYGVDAWGQGTTVTVSSASTKGPSVFPLAPSSKSTSGGTAALGCLVKDYFPEPVTVSWNSGALTSGVHTFPAVLQSSGLYSLSSVVTVPSSSLGTQTYICNVNHKPSNTKVDKKVEPKSCDKTHTCPPCPAPEAAGGPSVFLFPPKPKDTLMISRTPEVTCVVVDVSHEDPEVKFNWYVDGVEVHNAKTKPREEQYASTYRVVSVLTVLHQDWLNGKEYKCKVSNKALPAPIEKTISKAKGQPREPQVYTLPPSRCELTKNQVSLSCAVKGFYPSDIAVEWESNGQPENNYKTTPPVLDSDGSFFLVSKLTVDKSRWQQGNVFSCSVMHEALHNHYTQKSLSLSPDYKDDDDK
chain: EPKSSDKTHTCPPCPAPELLGGPSVFLFPPKPKDTLMISRTPEVTCVVVDVSHEDPEVKFNWYVDGVEVHNAKTKPREEQYNSTYRVVSVLTVLHQDWLNGKEYKCKVSNKALPAPIEKTISKAKGQPREPQVCTLPPSRDELTKNQVSLWCLVKGFYPSDIAVEWESNGQPENNYKTTPPVLDSDGSFFLYSKLTVDKSRWQQGNVFSCSVMHEALHNRYTQKSLSLSP
B2: GLS3000 H34N one-arm antibody (antibody, human IgG1, kappa, L234A L235A, N297A, name in Kabat numbering)
light: B1 light with M39N
heavy: B1 heavy
chain: B1 chain
B3: GLS3000 H34P one-arm antibody (antibody, human IgG1, kappa, L234A L235A, N297A, name in Kabat numbering)
light: B1 light with M39P
heavy: B1 heavy
chain: B1 chain
B4: GLS3000 H34Q one-arm antibody (antibody, human IgG1, kappa, L234A L235A, N297A, name in Kabat numbering)
light: B1 light with M39Q
heavy: B1 heavy
chain: B1 chain
B5: GLS3000 H34R one-arm antibody (antibody, human IgG1, kappa, L234A L235A, N297A, name in Kabat numbering)
light: B1 light with M39R
heavy: B1 heavy
chain: B1 chain
B6: GLS3000 H34S one-arm antibody (antibody, human IgG1, kappa, L234A L235A, N297A, name in Kabat numbering)
light: B1 light with M39S
heavy: B1 heavy
chain: B1 chain
B7: GLS3000 H34T one-arm antibody (antibody, human IgG1, kappa, L234A L235A, N297A, name in Kabat numbering)
light: B1 light with M39T
heavy: B1 heavy
chain: B1 chain
B8: GLS3000 H34V one-arm antibody (antibody, human IgG1, kappa, L234A L235A, N297A, name in Kabat numbering)
light: B1 light with M39V
heavy: B1 heavy
chain: B1 chain
B9: GLS3000 H34W one-arm antibody (antibody, human IgG1, kappa, L234A L235A, N297A, name in Kabat numbering)
light: B1 light with M39W
heavy: B1 heavy
chain: B1 chain
B10: GLS3000 H34Y one-arm antibody (antibody, human IgG1, kappa, L234A L235A, N297A, name in Kabat numbering)
light: B1 light with M39Y
heavy: B1 heavy
chain: B1 chain
B11: GLS3000 K50E one-arm antibody (antibody, human IgG1, kappa, L234A L235A, N297A, name in Kabat numbering)
light: B1 light with M39H, K55E
heavy: B1 heavy
chain: B1 chain
B12: GLS3000 K50G one-arm antibody (antibody, human IgG1, kappa, L234A L235A, N297A, name in Kabat numbering)
light: B1 light with M39H, K55G
heavy: B1 heavy
chain: B1 chain
B13: GLS3000 K50L one-arm antibody (antibody, human IgG1, kappa, L234A L235A, N297A, name in Kabat numbering)
light: B1 light with M39H, K55L
heavy: B1 heavy
chain: B1 chain
B14: GLS3000 K50P one-arm antibody (antibody, human IgG1, kappa, L234A L235A, N297A, name in Kabat numbering)
light: B1 light with M39H, K55P
heavy: B1 heavy
chain: B1 chain
B15: GLS3000 K50Q one-arm antibody (antibody, human IgG1, kappa, L234A L235A, N297A, name in Kabat numbering)
light: B1 light with M39H, K55Q
heavy: B1 heavy
chain: B1 chain
B16: GLS3000 K50R one-arm antibody (antibody, human IgG1, kappa, L234A L235A, N297A, name in Kabat numbering)
light: B1 light with M39H, K55R
heavy: B1 heavy
chain: B1 chain
B17: GLS3000 K50S one-arm antibody (antibody, human IgG1, kappa, L234A L235A, N297A, name in Kabat numbering)
light: B1 light with M39H, K55S
heavy: B1 heavy
chain: B1 chain
B18: GLS3000 K50T one-arm antibody (antibody, human IgG1, kappa, L234A L235A, N297A, name in Kabat numbering)
light: B1 light with M39H, K55T
heavy: B1 heavy
chain: B1 chain
B19: GLS3000 K50Y one-arm antibody (antibody, human IgG1, kappa, L234A L235A, N297A, name in Kabat numbering)
light: B1 light with M39H, K55Y
heavy: B1 heavy
chain: B1 chain
B20: GLS3000 K74T one-arm antibody (antibody, human IgG1, kappa, L234A L235A, N297A, name in Kabat numbering)
light: B1 light with M39H, K79T
heavy: B1 heavy
chain: B1 chain
B21: GLS3000 K107E one-arm antibody (antibody, human IgG1, kappa, L234A L235A, N297A, name in Kabat numbering)
light: B1 light with M39H, K112E
heavy: B1 heavy
chain: B1 chain
B22: GLS3000 L33E one-arm antibody (antibody, human IgG1, kappa, L234A L235A, N297A, name in Kabat numbering)
light: B1 light with L38E, M39H
heavy: B1 heavy
chain: B1 chain
B23: GLS3000 L33F one-arm antibody (antibody, human IgG1, kappa, L234A L235A, N297A, name in Kabat numbering)
light: B1 light with L38F, M39H
heavy: B1 heavy
chain: B1 chain
B24: GLS3000 L33I one-arm antibody (antibody, human IgG1, kappa, L234A L235A, N297A, name in Kabat numbering)
light: B1 light with L38I, M39H
heavy: B1 heavy
chain: B1 chain
B25: GLS3000 L33M one-arm antibody (antibody, human IgG1, kappa, L234A L235A, N297A, name in Kabat numbering)
light: B1 light with L38M, M39H
heavy: B1 heavy
chain: B1 chain
B26: GLS3000 L33P one-arm antibody (antibody, human IgG1, kappa, L234A L235A, N297A, name in Kabat numbering)
light: B1 light with L38P, M39H
heavy: B1 heavy
chain: B1 chain
B27: GLS3000 L33V one-arm antibody (antibody, human IgG1, kappa, L234A L235A, N297A, name in Kabat numbering)
light: B1 light with L38V, M39H
heavy: B1 heavy
chain: B1 chain
B28: GLS3000 N53E one-arm antibody (antibody, human IgG1, kappa, L234A L235A, N297A, name in Kabat numbering)
light: B1 light with M39H, N58E
heavy: B1 heavy
chain: B1 chain
B29: GLS3000 N53F one-arm antibody (antibody, human IgG1, kappa, L234A L235A, N297A, name in Kabat numbering)
light: B1 light with M39H, N58F
heavy: B1 heavy
chain: B1 chain
B30: GLS3000 N53G one-arm antibody (antibody, human IgG1, kappa, L234A L235A, N297A, name in Kabat numbering)
light: B1 light with M39H, N58G
heavy: B1 heavy
chain: B1 chain
B31: GLS3000 N53H one-arm antibody (antibody, human IgG1, kappa, L234A L235A, N297A, name in Kabat numbering)
light: B1 light with M39H, N58H
heavy: B1 heavy
chain: B1 chain
B32: GLS3000 N53I one-arm antibody (antibody, human IgG1, kappa, L234A L235A, N297A, name in Kabat numbering)
light: B1 light with M39H, N58I
heavy: B1 heavy
chain: B1 chain
B33: GLS3000 N53K one-arm antibody (antibody, human IgG1, kappa, L234A L235A, N297A, name in Kabat numbering)
light: B1 light with M39H, N58K
heavy: B1 heavy
chain: B1 chain

biological target: T1, CD3 epsilon homodimer protein (UniProt P07766 23-126); test: SPR Biacore T200, CD3e homodimer on chip, antibody analyte;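 note: CD3 epsilon homodimer amine-coupled on CM4 sensor chip, antibodies injected as analyte at 25 °C in HBS-EP+, ratio ≥0.8 taken as binding retained versus unaltered parent antibody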
T1 construct: Construct of the homodimer is not described; also called CD3 (CD3 epsilon)
T1 sequence (P07766 23-126): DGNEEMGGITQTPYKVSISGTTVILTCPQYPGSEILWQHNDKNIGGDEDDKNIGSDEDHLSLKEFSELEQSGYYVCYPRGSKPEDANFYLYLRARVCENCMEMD

Binder	ratio of amounts bound (altered form/GLS3000)
B1	0.35
B2	0.65
B3	0.34
B4	0.25
B5	0.2
B6	0.78
B7	0.89
B8	0.85
B9	0.24
B10	0.59
B11	0.24
B12	0.16
B13	0.24
B14	0.3
B15	0.18
B16	0.5
B17	0.23

Binder	ratio of amounts bound (altered form/GLS3000)
B18	0.19
B19	0.24
B20	0.84
B21	0.94
B22	0.72
B23	0.78
B24	0.83
B25	0.93
B26	0.3
B27	1.05
B28	0.54
B29	0.69
B30	0.76
B31	1.18
B32	0.5
B33	1.08
